Data from article PMC3467059 (Nucleic Acids Research, 2012).

Key:
[1] = molecular target: PspF1–275 F85Y (E. coli, UniProt P37344 1-275, F85Y); assay: native gel or EMSA
[2] = molecular target: PspF1–275 T86S (E. coli, UniProt P37344 1-275, T86S); assay: native gel or EMSA

Binder	binding result [1]	binding result [2]
QLQQAIRL (peptide, UniProt P06223 18-25, looked up) [σ54RI peptide fragment, residues 18–25 (Patch 1)]	binds	–
LQQELQQ (peptide, UniProt P06223 33-39, looked up) [σ54RI peptide fragment, residues 33–39 (Patch 2)]	binds	binds
